The target of this assay is T1, plexinD1-Fc (ectodomain of mouse plexinD1 as C-terminal Fc-fusion construct) (mouse, UniProt Q3UH93 49-1271).
T1 sequence (looked up): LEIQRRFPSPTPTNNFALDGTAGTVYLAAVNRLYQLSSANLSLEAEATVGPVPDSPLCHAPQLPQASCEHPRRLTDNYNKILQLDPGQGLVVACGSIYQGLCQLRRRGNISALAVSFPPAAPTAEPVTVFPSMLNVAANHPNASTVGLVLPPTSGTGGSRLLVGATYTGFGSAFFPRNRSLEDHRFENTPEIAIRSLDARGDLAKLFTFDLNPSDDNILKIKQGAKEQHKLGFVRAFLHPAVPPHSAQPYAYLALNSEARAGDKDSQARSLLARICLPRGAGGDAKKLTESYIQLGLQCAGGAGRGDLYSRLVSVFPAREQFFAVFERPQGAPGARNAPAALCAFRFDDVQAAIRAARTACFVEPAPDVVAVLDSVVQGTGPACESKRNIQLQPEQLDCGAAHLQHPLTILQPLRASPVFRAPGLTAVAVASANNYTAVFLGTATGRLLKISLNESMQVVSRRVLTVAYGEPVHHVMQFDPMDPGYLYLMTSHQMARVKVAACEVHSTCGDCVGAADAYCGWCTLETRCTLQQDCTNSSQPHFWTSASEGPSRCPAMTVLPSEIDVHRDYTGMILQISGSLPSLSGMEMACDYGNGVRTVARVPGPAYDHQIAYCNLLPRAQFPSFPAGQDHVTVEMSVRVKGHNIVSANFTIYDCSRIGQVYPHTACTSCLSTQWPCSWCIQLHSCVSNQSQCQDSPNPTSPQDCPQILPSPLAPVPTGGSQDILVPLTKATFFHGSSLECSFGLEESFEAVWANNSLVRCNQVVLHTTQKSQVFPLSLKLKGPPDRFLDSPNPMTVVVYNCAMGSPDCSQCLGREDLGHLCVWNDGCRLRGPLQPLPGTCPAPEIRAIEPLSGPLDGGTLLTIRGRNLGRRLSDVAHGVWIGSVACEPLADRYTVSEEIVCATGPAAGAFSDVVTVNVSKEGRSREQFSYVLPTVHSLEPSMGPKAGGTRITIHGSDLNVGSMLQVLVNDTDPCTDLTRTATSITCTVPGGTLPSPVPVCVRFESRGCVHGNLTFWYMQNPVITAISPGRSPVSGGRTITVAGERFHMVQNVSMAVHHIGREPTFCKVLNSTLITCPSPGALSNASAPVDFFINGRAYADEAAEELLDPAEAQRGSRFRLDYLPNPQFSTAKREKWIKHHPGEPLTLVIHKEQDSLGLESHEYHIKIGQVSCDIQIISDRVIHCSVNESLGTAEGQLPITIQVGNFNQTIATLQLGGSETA
The experiment in a line: SPR. For orientation: In SPR one partner is held on a chip, and binding of the other changes the refractive index at the surface.

The record followed here is PMC2615553 (Immunity, 2008).

The term Kd denotes the free concentration of one partner at which half of the binding sites on the other are occupied at equilibrium, for simple one-to-one binding. Read a high Kd as lower affinity.

B1: sema3E-Fc (semaphorin 3E as C-terminal Fc-fusion construct) (Fc fusion, UniProt P70275 26-775, looked up)
chain: ANPSYPRLRLSHKELLELNRTSIFQSPLGFLDLHTMLLDEYQERLFVGGRDLVYSLNLERVSDGYREIYWPSTAVKVEECIMKGKDANECANYIRVLHHYNRTHLLTCATGAFDPHCAFIRVGHHSEEPLFHLESHRSERGRGRCPFDPNSSFVSTLVGNELFAGLYSDYWGRDSAIFRSMGKLGHIRTEHDDERLLKEPKFVGSYMIPDNEDRDDNKMYFFFTEKALEAENNAHTIYTRVGRLCVNDMGGQRILVNKWSTFLKARLVCSVPGMNGIDTYFDELEDVFLLPTRDPKNPVIFGLFNTTSNIFRGHAVCVYHMSSIREAFNGPYAHKEGPEYHWSLYEGKVPYPRPGSCASKVNGGKYGTTKDYPDDAIRFARMHPLMYQPIKPVHKKPILVKTDGKYNLRQLAVDRVEAEDGQYDVLFIGTDTGIVLKVITIYNQETEWMEEVILEELQIFKDPAPIISMEISSKRQQLYIGSASAVAQVRFHHCDMYGSACADCCLARDPYCAWDGISCSRYYPTGAHAKRRFRRQDVRHGNAAQQCFGQQFVGDALDRTEERLAYGIESNSTLLECTPRSLQAKVIWFVQKGRDVRKEEVKTDDRVVKMDLGLLFLRVRKSDAGTYFCQTVEHNFVHTVRKITLEVVEEHKVEGMFHKDHEEERHHKMPCPPLSGMSQGTKPWYKEFLQLIGYSNFQRVEEYCEKVWCTDKKRKKLKMSPSKWKYANPQEKRLRSKAEHFRLPRHTLLS
B1 gave an equilibrium dissociation constant (Kd) of 43.4 nM.
